# Results taken from the supplement of paper PMC12855868.
# B1: library; numbered along this chain (parent)
# chain: MAAAGGARLLRAASAVLGGPAGRWLHHAGSRAGSSGLLRNRGPGGSAEASRSLSVSARARSSSEDKITVHFINRDGETLTTKGKVGDSLLDVVVENNLDIDGFGACEGTLACSTCHLIFEDHIYEKLDAITDEENDMLDLAYGLTDRSRLGCQICLTKSMDNMTVRVPETVADARQSIDVGKTS
# Variants of: B1
# Test: scaled log2 fold change in cell abundance, elesclomol vs control (0 = silent mean, 1 = nonsense mean) (scaled log2 ratio); higher = higher viability under elesclomol (loss of FDX1 cuproptosis function)
# Conditions: glucose 10 mM
# [1] = with ABC1 FDX1 KO, elesclomol 5 nM, 14 days
# [2] = with HEK293T FDX1 KO, elesclomol 40 nM, 11 days
# 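Note: variant abundance is its share of total variant reads in each endpoint sample, from next-generation sequencing of the integrated ORF PCR-amplified out of genomic DNA.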
Variant,scaled log2 fold change [1],scaled log2 fold change [2]
T68A,-0.0418,-0.389
T68M,-0.209,0.641
T68R,-0.0852,-0.377
T68V,0.247,0.769
T68P,0.317,0.911
T68Y,0.308,0.0848
T68C,0.309,-0.148
T68E,-0.318,-0.497
T68K,-0.155,-0.329
T68W,0.0579,0.896
T68H,0.349,-0.699
T68N,0.00412,-0.202
T68I,0.0915,0.0716
T68F,-0.000655,0.914
T68G,-0.0825,0.801
T68Q,0.0568,-0.103
T68S,-0.0825,0.833
T68D,0.0867,0.164
T68L,0.248,0.885
I67D,1.08,1.13
I67P,0.222,-0.205
I67W,0.658,-0.0492
I67K,0.691,0.44
I67E,0.963,0.881

Variant,scaled log2 fold change [1],scaled log2 fold change [2]
I67H,0.608,0.601
I67F,0.0413,-0.46
I67R,0.504,0.363
I67N,0.44,0.681
I67A,0.473,0.322
I67Q,0.436,0.135
I67M,0.35,0.129
I67L,0.113,0.514
I67T,0.0745,0.365
I67S,0.0219,0.253
I67G,0.747,0.579
I67Y,0.135,-0.731
I67C,0.2,-0.121
I67V,-0.37,0.832
K66D,-0.097,–
K66R,0.114,-0.744
K66I,-0.298,-0.755
K66F,-0.158,-0.676
K66A,-0.0856,0.00324
K66V,0.0478,-0.102
K66E,-0.297,-0.118
K66W,-0.5,-0.676
K66Q,-0.382,0.00416
K66C,-0.0989,-0.0245

Variant,scaled log2 fold change [1],scaled log2 fold change [2]
K66G,0.301,0.245
K66P,-0.38,-0.254
K66T,0.0453,0.851
K66S,-0.679,-0.304
K66H,0.0524,-0.795
K66M,-0.188,-0.226
K66N,-0.167,0.199
K66L,-0.00608,-0.145
K66Y,-0.0452,-0.0505
G76K,-0.353,-0.04
G76A,-0.303,-0.122
G76H,0.293,-0.385
G76I,0.0447,-0.0276
G76T,0.217,–
G76Y,-0.241,0.296
G76N,-0.0936,-0.272
G76F,-0.264,-0.273
G76C,0.377,0.277
G76S,0.164,–
G76P,0.585,0.000649
G76M,0.321,-0.269
G76D,0.21,1.47
G76R,-0.0307,–
G76L,0.0165,-0.41

Variant,scaled log2 fold change [1],scaled log2 fold change [2]
G76E,-0.688,0.0105
G76V,0.401,-0.808
F71P,1.18,1.13
F71Q,1.3,0.999
F71Y,0.112,-0.0161
F71A,0.63,0.751
F71M,0.0919,1.2
F71I,-0.753,-0.554
F71T,0.523,0.991
F71H,1.22,1.17
F71V,0.271,-0.215
F71G,1.09,0.752
F71R,1.04,1.38
F71C,0.161,0.0168
F71D,1.1,1.37
F71W,0.102,-0.726
F71E,1.02,1.5
F71S,0.983,1.08
F71L,-0.0155,-0.376
F71N,1.07,1.17
F71K,1.18,1.46
T78D,0.00307,-0.427
T78G,-0.0398,0.179
T78I,-0.229,–

Variant,scaled log2 fold change [1],scaled log2 fold change [2]
T78Q,0.0403,-0.00407
T78C,-0.0788,–
T78H,-0.378,1.01
T78P,-0.0243,-0.366
T78M,-0.54,-0.0932
T78K,0.447,-1.09
T78S,0.0645,0.487
T78L,-0.709,0.584
T78N,-0.0446,-0.273
T78R,-0.905,-0.932
T78E,0.171,2.14
V69F,-0.809,-0.24
V69N,1.01,0.921
V69W,0.674,0.931
V69I,-0.0537,-0.536
V69A,0.0154,0.807
V69G,1.19,1.06
V69K,1.22,1.85
V69H,1.16,1.1
V69C,0.189,0.782
